Results taken from PMC10691782 (Cellular immunology, 2022).

Assays:
[1] = molecular target: BAFF in human plasma (human (endogenous in plasma)); assay: SEC
[2] = molecular target: BAFF 60-mer:mBaffR-Fc complex (human | murine, UniProt Q9Y275-1 134-285; Q9D8D0 1-71); assay: ELISA
[3] = molecular target: Recombinant BAFF 3-mer (Flag-tagged BAFF amino acid 134-285) (human, UniProt Q9Y275-1 134-285); assay: SPR
[4] = molecular target: Recombinant BAFF 60-mer (histidine-tagged BAFF amino acid 134-285) (human, UniProt Q9Y275-1 134-285); assay: SPR

BAFF in human plasma (natural protein)
stoichiometry N [1]: 3

B1: Murine TACI-Fc (Fc fusion, UniProt Q9ET35 1-128, looked up)
chain: MAMAFCPKDQYWDSSRKSCVSCALTCSQRSQRTCTDFCKFINCRKEQGRYYDHLLGACVSCDSTCTQHPQQCAHFCEKRPRSQANLQPELGRPQAGEVEVRSDNSGRHQGSEHGPGLRLSSDQLTLYC
modifications: biotin (EZ-Link Sulfo-NHS-Biotin), in the ELISA only
binding result [2]: binds

MAQQCFHSEYFDSLLHACKPCHLRCSNPPATCQPYCDPSVTSSVKGTYT (Fc fusion, UniProt O88472 1-49, looked up, not fully specified; biotin (EZ-Link Sulfo-NHS-Biotin), in the ELISA only) [Murine BCMA-Fc]
binding result [2]: binds

B2: mBaffR-Fc (murine BR3 ecto-domain fused to murine IgG1 Fc fragment) (Fc fusion, UniProt Q9D8D0 1-71, looked up)
chain: MGARRLRVRSQRSRDSSVPTQCNQTECFDPLVRNCVSCELFHTPDTGHTSSLEPGTALQPQEGSALRPDVA
binding result [3]: binds | binding result [4]: binds
